Measurements taken from paper PMC10036606.

Molecular target: CD58 extracellular domain (human) (UniProt P19256)
Chain of UniProt P19256 (P19256 29-215): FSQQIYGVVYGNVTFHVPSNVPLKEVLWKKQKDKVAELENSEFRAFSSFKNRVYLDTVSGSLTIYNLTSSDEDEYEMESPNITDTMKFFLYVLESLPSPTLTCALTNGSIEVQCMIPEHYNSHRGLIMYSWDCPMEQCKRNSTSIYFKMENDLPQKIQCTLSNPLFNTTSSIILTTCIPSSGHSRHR

## CD2 (from UniProt P06729 25-351) (receptor)
  glycocalyx exclusion on the SLB2 (reduction in fluorescence, contact tightness) in regions of CD58 accumulation under J8-GECI cells, against 20% in regions of ICAM-1 accumulation: 45%
